Molecular target: Gal4p BD fused with murine p53 (pGBKT7-53) (murine)
Assay: two-hybrid

For “Gal4 AD fused with the SV40 large T-antigen (pGADT7-T) (natural protein)”, the mean GFP fluorescence at 72 hrs was 156, the mean GFP fluorescence at 96 hrs was 116 and the percent GFP positive cells was 69.9%. The percent GFP positive cells at 30-48 hrs was 3 to 5%, the percent GFP positive cells at 72 hrs was 23.8% and the percent GFP positive cells at 96 hrs was 23.5%.

— article PMC3250062
